Our source for the binding values is PMC9867676.

Series [1] has as its system T1, RinA (Staphylococcus aureus NCTC8325 (phage phi11)), ORF:ad3d0fcb.
T1 sequence: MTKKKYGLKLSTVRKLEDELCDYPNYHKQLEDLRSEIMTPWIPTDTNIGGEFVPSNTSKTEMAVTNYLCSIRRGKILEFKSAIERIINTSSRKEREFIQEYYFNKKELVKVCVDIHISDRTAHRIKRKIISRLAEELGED
The series can be described thus: EMSA. Conditions: 50 mM Tris-HCl, 300 mM NaCl, pH 8.0 ([…], room temperature.

Series [2] has the same test system. Kind of series: competition. As to conditions: 50 mM Tris-HCl, 300 mM NaCl, pH 8.0 ([…], room temperature.

On to “CTAAACCAAATGCTAACCCAGAAATACAATCACTGTGTCTAATGAATAATTTGTTTTATAAACACTTTTTTGTTTACTTCTCATTTTTAATTAGTTATAATTAACTAAATAATAGAGCATTAAATATATTTAATAAAACTTATTTAATGCAAAATTATGACTAACATATCTATAATAAATAAAGATTAGATATCAATATATTATCGGGCAAATGTATCGAGCAAGATGCATCAAATAGGGAGGTTTTAAACATGGC (double strand) [sarA promoter fragment (FAM)]”, for which the binding entry in series [1] is “binds”.
For the sequence “CTAAACCAAATGCTAACCCAGAAATACAATCACTGTGTCTAATGAATAATTTGTTTTATAAACACTTTTTTGTTTACTTCTCATTTTTAATTAGTTATAATTAACTAAATAATAGAGCATTAAATATATTTAATAAAACTTATTTAATGCAAAATTATGACTAACATATCTATAATAAATAAAGATTAGATATCAATATATTATCGGGCAAATGTATCGAGCAAGATGCATCAAATAGGGAGGTTTTAAACATGGC (double strand) [sarA promoter fragment (unlabeled)]”, in series [2], the binding result is listed as “binds”.
